Results taken from patent US7183387 (Genentech, dated 2007).
One block for each binder: values may come before it.

What was measured:
[1] = molecular target: T1, human FcγRIIB α subunit extracellular domain-6His-GST fusion (human, UniProt P31994 43-217); assay: ELISA, IgG:IgE hexamers on receptor-GST
T1 construct: not shown: glutathione S-transferase (GST)
T1 sequence: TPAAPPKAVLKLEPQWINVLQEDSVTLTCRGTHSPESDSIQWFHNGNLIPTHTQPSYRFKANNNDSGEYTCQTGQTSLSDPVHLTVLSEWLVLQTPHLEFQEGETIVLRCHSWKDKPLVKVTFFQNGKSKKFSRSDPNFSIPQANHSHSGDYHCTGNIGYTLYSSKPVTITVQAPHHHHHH

[2] = molecular target: T2, human FcγRIIA-R131 α subunit extracellular domain-6His-GST fusion (human, UniProt P12318 34-217); assay: ELISA, IgG:IgE hexamers on receptor-GST
T2 construct: also called FcγRIIA-Arg131; not shown: glutathione S-transferase (GST)
T2 sequence: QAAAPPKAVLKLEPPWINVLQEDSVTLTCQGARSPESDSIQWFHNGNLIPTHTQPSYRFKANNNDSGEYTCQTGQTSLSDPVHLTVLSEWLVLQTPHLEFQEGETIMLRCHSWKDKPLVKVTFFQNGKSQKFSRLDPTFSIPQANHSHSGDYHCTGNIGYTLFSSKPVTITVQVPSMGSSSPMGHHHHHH

[3] = molecular target: T3, human FcγRIIIA-F158 α subunit extracellular domain-6His-GST fusion (human, UniProt P08637 17-208); assay: ELISA, IgG:IgE hexamers on receptor-GST
T3 construct: also called FcγRIIIA-Phe158; not shown: glutathione S-transferase (GST)

[4] = molecular target: T4, human FcγRIIIA-V158 α subunit extracellular domain-His6-GST fusion (human, UniProt P08637 17-208); assay: ELISA, IgG complex, receptor coated
T4 construct: ECD-6His-GST fusion made in 293 cells; also called FcγRIIIA-Val158; not shown: glutathione S transferase (GST)

[5] = molecular target: T5, human FcγRIIIA-F158 α subunit extracellular domain-His6-GST fusion (human, UniProt P08637 17-208); assay: ELISA, IgG complex, receptor coated
T5 construct: ECD-6His-GST fusion made in 293 cells; also called FcγRIIIA-Phe158; not shown: glutathione S transferase (GST)

[6] = molecular target: T6, human FcγRIIA-R131 α subunit extracellular domain-His6-GST fusion (human, UniProt P12318 34-217); assay: ELISA, IgG complex, receptor coated
T6 construct: ECD-6His-GST fusion made in 293 cells; also called FcγRIIA-Arg131; not shown: glutathione S transferase (GST)
T6 sequence: T2 sequence

[7] = molecular target: T4, human FcγRIIIA-V158 α subunit …; assay: ELISA, IgG monomer, receptor coated

T5 sequence (P08637 other isoform, or with tags, fused parts or gaps, form in doubt): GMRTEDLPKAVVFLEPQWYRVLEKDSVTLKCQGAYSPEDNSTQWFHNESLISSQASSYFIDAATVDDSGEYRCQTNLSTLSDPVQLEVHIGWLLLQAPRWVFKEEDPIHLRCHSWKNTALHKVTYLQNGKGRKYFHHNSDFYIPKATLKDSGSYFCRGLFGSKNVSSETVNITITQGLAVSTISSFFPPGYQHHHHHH
T4 sequence (P08637 other isoform, or with tags, fused parts or gaps, form in doubt): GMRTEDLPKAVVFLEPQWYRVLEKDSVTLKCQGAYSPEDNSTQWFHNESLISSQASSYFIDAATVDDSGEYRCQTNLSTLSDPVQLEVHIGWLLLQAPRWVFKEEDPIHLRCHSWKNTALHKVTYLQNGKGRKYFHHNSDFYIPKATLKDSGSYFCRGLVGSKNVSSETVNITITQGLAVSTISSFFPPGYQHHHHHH

ratio to native IgG1 [1]: 0.63 | ratio to native IgG1 [2]: 0.72 | ratio to native IgG1 [3]: 1.3
B1: E27 IgG1 variant E333(352)A/K334(353)A (antibody)
heavy: not shown
light: DIQLTQSPSSLSASVGDRVTITCRASKPVDGEGDSYLNWYQQKPGKAPKLLIYAASYLESGVPSRFSGSGSGTDFTLTISSLQPEDFATYYCQQSHEDPYTFGQGTKVEIKRTVAAPSVFIFPPSDEQLKSGTASVVCLLNNFYPREAKVQWKVDNALQSGNSQESVTEQDSKDSTYSLSSTLTLSKADYEKHKVYACEVTHQGLSSPVTKSFNRGEC

ratio of binding, variant/native IgG1 (mean) [4]: 0.98 ratio | ratio of binding, variant/native IgG1 (mean) [5]: 1.3 ratio | ratio of binding, variant/native IgG1 (mean) [6]: 1.1 ratio | ratio of binding, variant/native IgG1 (mean) [7]: 1.5 ratio
B2: anti-IgE E27 IgG1 variant K290(307)E (antibody)
heavy: not shown
light: B1 light
notes: Fc variant of E27; also called IG2 77

ratio of binding, variant/native IgG1 (mean) [4]: 1 ratio | ratio of binding, variant/native IgG1 (mean) [5]: 1.34 ratio | ratio of binding, variant/native IgG1 (mean) [6]: 1.13 ratio | ratio of binding, variant/native IgG1 (mean) [7]: 2.89 ratio
B3: anti-IgE E27 IgG1 variant K334(353)V (antibody)
heavy: not shown
light: B1 light
notes: Fc variant of E27; also called IG2 220

ratio of binding, variant/native IgG1 (mean) [4]: 0.96 ratio | ratio of binding, variant/native IgG1 (mean) [5]: 1.07 ratio | ratio of binding, variant/native IgG1 (mean) [6]: 0.94 ratio | ratio of binding, variant/native IgG1 (mean) [7]: 1.53 ratio
B4: anti-IgE E27 IgG1 variant K334(353)W (antibody)
heavy: not shown
light: B1 light
notes: Fc variant of E27

ratio of binding, variant/native IgG1 (mean) [4]: 0.96 ratio | ratio of binding, variant/native IgG1 (mean) [5]: 1.03 ratio | ratio of binding, variant/native IgG1 (mean) [6]: 1.29 ratio | ratio of binding, variant/native IgG1 (mean) [7]: 0.78 ratio
B5: anti-IgE E27 IgG1 variant P331(350)A (antibody)
heavy: not shown
light: B1 light
notes: Fc variant of E27; also called IG2 65; Pro331Ala

ratio to native IgG1 [1]: 1.96 | ratio to native IgG1 [2]: 1.54 | ratio to native IgG1 [3]: 1.13
B6: E27 IgG1 variant S267(280)A/D280(295)A (antibody)
heavy: not shown
light: B1 light
notes: also called IG2 248

ratio of binding, variant/native IgG1 (mean) [4]: 0.88 ratio | ratio of binding, variant/native IgG1 (mean) [5]: 0.46 ratio | ratio of binding, variant/native IgG1 (mean) [6]: 0.87 ratio | ratio of binding, variant/native IgG1 (mean) [7]: 1.88 ratio
B7: anti-IgE E27 IgG1 variant S298(317)G (antibody)
heavy: not shown
light: B1 light
notes: Fc variant of E27; also called IG2 70

ratio of binding, variant/native IgG1 (mean) [4]: 1.17 ratio | ratio of binding, variant/native IgG1 (mean) [5]: 1.3 ratio | ratio of binding, variant/native IgG1 (mean) [6]: 0.74 ratio | ratio of binding, variant/native IgG1 (mean) [7]: 2.75 ratio
B8: anti-IgE E27 IgG1 variant K334(353)E (antibody)
heavy: not shown
light: B1 light
notes: Fc variant of E27

ratio of binding, variant/native IgG1 (mean) [4]: 0.96 ratio | ratio of binding, variant/native IgG1 (mean) [5]: 1.38 ratio | ratio of binding, variant/native IgG1 (mean) [6]: 1.05 ratio | ratio of binding, variant/native IgG1 (mean) [7]: 3.59 ratio
B9: anti-IgE E27 IgG1 variant K334(353)L (antibody)
heavy: not shown
light: B1 light
notes: Fc variant of E27; also called IG2 221

ratio to native IgG1 [1]: 2.01 | ratio to native IgG1 [2]: 1.62 | ratio to native IgG1 [3]: 1.04
B10: E27 IgG1 variant S267(280)A/E258(271)A (antibody)
heavy: not shown
light: B1 light

ratio of binding, variant/native IgG1 (mean) [4]: 0.83 ratio | ratio of binding, variant/native IgG1 (mean) [5]: 0.34 ratio | ratio of binding, variant/native IgG1 (mean) [6]: 1.14 ratio | ratio of binding, variant/native IgG1 (mean) [7]: 0.67 ratio
B11: anti-IgE E27 IgG1 variant S298(317)L (antibody)
heavy: not shown
light: B1 light
notes: Fc variant of E27

ratio of binding, variant/native IgG1 (mean) [4]: 0.94 ratio | ratio of binding, variant/native IgG1 (mean) [5]: 0.88 ratio | ratio of binding, variant/native IgG1 (mean) [6]: 0.76 ratio | ratio of binding, variant/native IgG1 (mean) [7]: 1.28 ratio
B12: anti-IgE E27 IgG1 variant K334(353)G (antibody)
heavy: not shown
light: B1 light
notes: Fc variant of E27; also called IG2 179

ratio of binding, variant/native IgG1 (mean) [4]: 1.19 ratio | ratio of binding, variant/native IgG1 (mean) [5]: 1.15 ratio | ratio of binding, variant/native IgG1 (mean) [6]: 1.16 ratio | ratio of binding, variant/native IgG1 (mean) [7]: 1.7 ratio
B13: anti-IgE E27 IgG1 variant K334(353)N (antibody)
heavy: not shown
light: B1 light
notes: Fc variant of E27

ratio of binding, variant/native IgG1 (mean) [4]: 1.27 ratio | ratio of binding, variant/native IgG1 (mean) [5]: 1.31 ratio | ratio of binding, variant/native IgG1 (mean) [6]: 1.08 ratio | ratio of binding, variant/native IgG1 (mean) [7]: 1.92 ratio
B14: anti-IgE E27 IgG1 variant K334(353)Q (antibody)
heavy: not shown
light: B1 light
notes: Fc variant of E27

ratio of binding, variant/native IgG1 (mean) [4]: 0.97 ratio | ratio of binding, variant/native IgG1 (mean) [5]: 1.32 ratio | ratio of binding, variant/native IgG1 (mean) [6]: 1.41 ratio | ratio of binding, variant/native IgG1 (mean) [7]: 1.2 ratio
B15: anti-IgE E27 IgG1 variant T256(269)A (antibody)
heavy: not shown
light: B1 light
notes: Fc variant of E27; also called IG2 11; Thr256Ala

ratio of binding, variant/native IgG1 (mean) [4]: 1.25 ratio | ratio of binding, variant/native IgG1 (mean) [5]: 1.19 ratio | ratio of binding, variant/native IgG1 (mean) [6]: 1.01 ratio | ratio of binding, variant/native IgG1 (mean) [7]: 1.82 ratio
B16: anti-IgE E27 IgG1 variant K334(353)S (antibody)
heavy: not shown
light: B1 light
notes: Fc variant of E27

ratio of binding, variant/native IgG1 (mean) [4]: 0.96 ratio | ratio of binding, variant/native IgG1 (mean) [5]: 0.89 ratio | ratio of binding, variant/native IgG1 (mean) [6]: 0.41 ratio | ratio of binding, variant/native IgG1 (mean) [7]: 0.75 ratio
B17: anti-IgE E27 IgG1 variant S298(317)T (antibody)
heavy: not shown
light: B1 light
notes: Fc variant of E27; also called IG2 71; Ser298Thr

ratio of binding, variant/native IgG1 (mean) [4]: 0.66 ratio | ratio of binding, variant/native IgG1 (mean) [5]: 0.06 ratio | ratio of binding, variant/native IgG1 (mean) [6]: 0.08 ratio | ratio of binding, variant/native IgG1 (mean) [7]: 0.17 ratio
B18: anti-IgE E27 IgG1 variant S298(317)N (antibody)
heavy: not shown
light: B1 light
notes: Fc variant of E27; also called IG2 72; Ser298Asn

ratio of binding, variant/native IgG1 (mean) [4]: 1.05 ratio | ratio of binding, variant/native IgG1 (mean) [5]: 1.26 ratio | ratio of binding, variant/native IgG1 (mean) [6]: 1.27 ratio | ratio of binding, variant/native IgG1 (mean) [7]: 1.62 ratio
B19: anti-IgE E27 IgG1 variant K290(307)S (antibody)
heavy: not shown
light: B1 light
notes: Fc variant of E27; also called IG2 75

ratio of binding, variant/native IgG1 (mean) [4]: 1.07 ratio | ratio of binding, variant/native IgG1 (mean) [5]: 1.08 ratio | ratio of binding, variant/native IgG1 (mean) [6]: 1.05 ratio | ratio of binding, variant/native IgG1 (mean) [7]: 1.24 ratio
B20: anti-IgE E27 IgG1 variant K290(307)R (antibody)
heavy: not shown
light: B1 light
notes: Fc variant of E27; also called IG2 78

ratio of binding, variant/native IgG1 (mean) [4]: 1.11 ratio | ratio of binding, variant/native IgG1 (mean) [5]: 1.23 ratio | ratio of binding, variant/native IgG1 (mean) [6]: 1.07 ratio | ratio of binding, variant/native IgG1 (mean) [7]: 2.29 ratio
B21: anti-IgE E27 IgG1 variant K290(307)G (antibody)
heavy: not shown
light: B1 light
notes: Fc variant of E27; also called IG2 177

ratio of binding, variant/native IgG1 (mean) [4]: 0.99 ratio | ratio of binding, variant/native IgG1 (mean) [5]: 1.35 ratio | ratio of binding, variant/native IgG1 (mean) [6]: 1.06 ratio | ratio of binding, variant/native IgG1 (mean) [7]: 2.08 ratio
B22: anti-IgE E27 IgG1 variant K334(353)M (antibody)
heavy: not shown
light: B1 light
notes: Fc variant of E27; also called IG2 190

ratio of binding, variant/native IgG1 (mean) [4]: 1.02 ratio | ratio of binding, variant/native IgG1 (mean) [5]: 1.4 ratio | ratio of binding, variant/native IgG1 (mean) [6]: 1.17 ratio | ratio of binding, variant/native IgG1 (mean) [7]: 1.3 ratio
B23: anti-IgE E27 IgG1 variant K290(307)Q (antibody)
heavy: not shown
light: B1 light
notes: Fc variant of E27; also called IG2 73

ratio of binding, variant/native IgG1 (mean) [4]: 0.98 ratio | ratio of binding, variant/native IgG1 (mean) [5]: 1.31 ratio | ratio of binding, variant/native IgG1 (mean) [6]: 1.08 ratio | ratio of binding, variant/native IgG1 (mean) [7]: 1.72 ratio
B24: anti-IgE E27 IgG1 variant K334(353)Y (antibody)
heavy: not shown
light: B1 light
notes: Fc variant of E27

ratio of binding, variant/native IgG1 (mean) [4]: 1.02 ratio | ratio of binding, variant/native IgG1 (mean) [5]: 1.3 ratio | ratio of binding, variant/native IgG1 (mean) [6]: 0.4 ratio | ratio of binding, variant/native IgG1 (mean) [7]: 1.96 ratio
B25: anti-IgE E27 IgG1 variant S298(317)A (antibody)
heavy: not shown
light: B1 light
notes: Fc variant of E27; also called IG2 36; G36

ratio of binding, variant/native IgG1 (mean) [4]: 0.95 ratio | ratio of binding, variant/native IgG1 (mean) [5]: 1.13 ratio | ratio of binding, variant/native IgG1 (mean) [6]: 1.03 ratio | ratio of binding, variant/native IgG1 (mean) [7]: 0.88 ratio
B26: anti-IgE E27 IgG1 variant T256(269)N (antibody)
heavy: not shown
light: B1 light
notes: Fc variant of E27

ratio of binding, variant/native IgG1 (mean) [4]: 0.97 ratio | ratio of binding, variant/native IgG1 (mean) [5]: 1.26 ratio | ratio of binding, variant/native IgG1 (mean) [6]: 1.09 ratio | ratio of binding, variant/native IgG1 (mean) [7]: 2.06 ratio
B27: anti-IgE E27 IgG1 variant K334(353)H (antibody)
heavy: not shown
light: B1 light
notes: Fc variant of E27
